Measurements: US20220228157A1, “GENE EDITING IN DIVERSE BACTERIA” (priority 2019, published 2022)
Read-outs that look alike come from different tables or passages of the source.

B1: Redβ: Redβ SSAP from Enterobacteria phage λ, SEQ ID NO: 474 (protein)
chain: MSTALATLAGKLAERVGMDSVDPQELITTLRQTAFKCDASDAQFIALLIVANQYGLNPWTKEIYAFPDKQNGIVPVVGVDGWSRIINENQQFDGMDFEQDNESCTCRIYRKDRNHPICVTEWMDECRREPFKTREGREITGPWQSHPKRMLRHKAMIQCARLAFGFAGIYDKDEAERIVENTAYTAERQPERDITPVNDETMQEINTLLIALDKTWDDDLLPLCSQIFRRDIRASSELTQAEAVKALGFLKQKATEQKVAA
modifications: Bacteriophage Lambda
B2: PapRecT: SSAP from Pseudomonas aeruginosa, SEQ ID NO: 24, UniParc ID: UPI0001E9E6CB (protein, listed as Pseudomonas aeruginosa)
chain: MGTALTPLLTKFATRYEMGTTPEEVANTLKQTCFKGQVNDSQMVALLIVADQYKLNPFTKELYAFPDKNNGIVPVVGVDGWARIINENPQFDGMEFSMDQQGTECTCKIYRKDRSHAISATEYMAECKRNTQPWQSHPRRMLRHKAMIQCARLAFGFAGIYDQDEAERIVERDVTPAEQYEDVSEAICLIKDSPTMEDLQAAFSNAWKAYKTKGARDQLTAAKDQRKKELLDAPIDVEFEETGDDRAA

Experiments:
[1] = test system: Pseudomonas aeruginosa PAO1; assay: Recombineering efficiency by selective plating; assay type: cell-based
Excerpt: To test the activity of PapRecT and CspRecT in these three organisms, the broad-host-range pORTMAGE system (Nyerges et al., Proc. Natl. Acad. Sci. U.S.A. 113, 2502-2507 (2016)) was built on as described above. For experiments in E. coli PapRecT or CspRecT was subcloned in place of Redβ into pORTMAGE311B (Szili et al., Antimicrob. Agents Chemother. AAC.00207-19 (2019) doi:10.1128/AAC.00207-19) (FIGS. 10A-10B; Addgene accession: #120418), which transiently disrupts MMR with EcMutL_E32K, and whose RSF1010 origin of replication and m-toluic-acid-based expression system allows the plasmid to be deployed over a broad range of bacterial hosts (Honda et al., Proc. Natl. Acad. Sci. U.S.A. 88, 179-183 (1991); Gawin et al., Microb. Biotechnol. 10, 702 (2017)). These same pORTMAGE-based constructs were used for testing in C. freundii and K. pneumoniae. […] It was found, however, that the efficiency of the plasmid construct was lower in P. aeruginosa than in the enterobacterial species that pORTMAGE was optimized for. Therefore, to increase editing efficiency in P. aeruginosa, i.) ribosomal binding sites (RBS) for PapRecT and EcMutL were optimized, ii.) EcMutL_E32K was replaced with its equivalent homologous mutant from P. aeruginosa (PaMutL_E36K), iii.) the native P. aeruginosa coding sequence for PapRecT was incorporated instead of the E. coli codon-optimized version (FIG. 13).
Virulent strains of P. aeruginosa are a frequent cause of acute infections in healthy individuals, as well as chronic infections in high-risk patients, such as those suffering from cystic fibrosis (Marvig et al., Nat. Genet. 47, 57-64 (2015)). The rate of antibiotic resistance in this species is growing, with strains adapting quickly to all clinically applied antibiotics (AbdulWahab et al., Lung India Off. Organ Indian Chest Soc. 34, 527-531 (2017); Tacconelli et al., Lancet Infect. Dis. 18, 318-327 (2018)). […] By genotyping and characterizing resistant colonies, the Minimum Inhibitory Concentration (MIC) of CIP for various resistant genotypes could be determined (Table 2, FIG. 14). […]

E. coli = assay: Allelic recombination frequency, selective vs non-selective plates; assay type: cell-based, Escherichia coli; settings: RecT alone
Experimental: Four variants known to enable high genome editing efficiency were selected (Redβ and PapRecT in E. coli, LrpRecT in L. lactis, and MspRecT in M. smegmatis), and tested codon optimized versions of all four in both E. coli (gram-negative), and L. lactis (gram-positive). Genome editing efficiency was measured by introducing oligos encoding known antibiotic resistance mutations, and compared the antibiotic resistant cell counts to the total number of viable cells in the population (FIGS. 17E-17F). […] In L. lactis, LrpRecT was the only functional homolog, and improved oligo incorporation 7,700-fold, while the three other RecT variants were nearly non-functional, improving oligo incorporation less than 7-fold (FIG. 17H). No RecT protein functioned well both in E. coli and L. lactis.
A single colony of E. coli was grown overnight to saturation. In the morning 30 μL of dense culture was inoculated into 3 mL of fresh media and grown for 1 hour. To induce gene expression of the pARC8 vector for recombineering experiments, L-arabinose was added to a final concentration of 0.2% (w/v) and the cells were grown an additional hour. 1 mL of cells were pelleted at 4° C. by centrifugation at 12,000×g for 2.5 minutes and washed twice with 1 mL of ice-cold dH2O. Cells were resuspended in 50 μL ice-cold dH2O containing DNA and transferred to a pre-chilled 0.1 cm electroporation cuvette.
Electrocompetent cells were electroporated with 90-mer oligos at: 1 uM for E. coli, 50 μg for L. lactis, and 10 uM for C. crescentus. 70-mer oligos were used at 1 μg for M. smegmatis. All oligos were obtained from IDT and can be found under “Oligonucleotides for genome editing” in materials and methods. For dsDNA experiments L. lactis was electroporated with 1.5 μg purified linear dsDNA. Cells were electroporated using a Bio-Rad gene pulser set to 25 μF, 200 S2, and 1.8 kV for E. coli, 2.0 kV for L. lactis, and 1.5 kV for C. crescentus and to 1000Ω and 2.5 kV for M. smegmatis. Immediately after electroporation, cells were recovered in fresh media for 3 hours for E. coli, 1 hour for L. lactis, overnight for M. smegmatis and overnight for C. crescentus. L. lactis recovery media was supplemented with MgCl2 and CaCl2) at a concentration of 20 mM and 2 mM, respectively. E. coli recovery media was supplemented with carbenicillin. M. smegmatis recovery media was supplemented with hygromycin. C. crescentus recovery media was supplemented with 0.3% xylose and kanamycin. After recovery, the cells were serial diluted and plated on non-selective vs. selective agar plates to obtain approximately 50-500 CFU/plate. Colonies were counted using a custom script in Fiji, and allelic recombination frequency was calculated by dividing the number of colonies on selective plates, with the number of colonies on non-selective plates.

Molecule	Editing performance in P. aeruginosa [1]	Improvement of oligo incorporation (E. coli)	Editing performance in P. aeruginosa ([1]; listed as SSAP SEQ ID NO: 24)
B1	does not work	1600 fold	
B2	performed the best	2700 fold	functions at high efficiency
